Measurements reported in patent US20050153366, “Protein-protein interaction antagonist screening libraries based upon 1,4-disubstituted naphthalenes and related scaffolds” (published 2005).

Target: T1, PBX1 (residues 233-319) (mouse/human, UniProt P40424 P40424:233-319)
T1 sequence: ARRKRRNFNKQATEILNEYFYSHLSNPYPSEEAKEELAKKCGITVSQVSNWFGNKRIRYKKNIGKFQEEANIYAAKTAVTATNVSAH
Assay: EMSA; binary PBX1/DNA complex; inhibited by compound 31, not by compound 15
Conditions: label: 32P (Klenow fill-in with alpha-32P-dCTP); annealed with overhangs extended by Klenow

B1: HOXPBX-CT probe (dsDNA)
DNA 1: CTCTCCTTTTGATTGATTAA
DNA 2: AGAGCTTAATCAATCAAAAGG
binding result: binds
